A protein production outcome set (Wang et al. 2014)

Experiment: label from the status in PepcDB records

| Sequence | protein production |
| --- | --- |
| MNKRFFPRIDLPLLMAIIPIMLLSSLTLWSASGFDESMLFKHLARCALTLVCILVMSSIPAASYQRSAPYLYFVAVSLLLAVALFGDSTNGSQRWLDIGFFRFQPSELIKLSIPIMIAWMLHLEGGRPDFRKIALCLMITLVPAGLIALQPDLDGAIFTVIYALFVLFFAGMSWKIIGGFVVSVLTLAPILWFFVMEAYQKSRVTQFLHPESDPLGSGYQIIQSLIAIGSGGMKGKGWMNATQGTLGFIPESHTDFIFSTYAEEWGFIGCVVLLALYLFITARVMLLACQSEHFFSRLVSGTLAMSFFLYAFINTGMVSGLLPVMGSPLPFFSYGGTAMLTQGICFGVIMSLCYSKYRNT | failed |
| MGHHHHHHSHMATSSQYRQLLSDYGPPSLGYTQGTGNSQVPQSKYAELLAIIEELGKEIRPTYAGSKSAMERLKRGIIHARGLVRECLAETERNARS | not failed |
| MIKHESSQPLRVAVAQCRIDWEDKHANLRRMERLAEETAGMADVLFFPEMMTTGFSMNVQALAEPFEEGETIMSLKRVTARHGLALSATMAVRENGKFYNRAYFVTPEGEVFHQDKRHLFRVGGEHEVMTPAQERRIFNY | failed |
| MTIIKYIKFVVIIVIVTIVFSCSKNEAGNSEYDPSLPISLTDFFPIQGGMATRMVIEGANFGTDLSQIKVFFNQKEASILNVKNSIIYLLVPKLPGNDCIVTVKVGNQEARFTRNFQYIENYSVTTIAGQPGTNLFVEGTLAAAQFGPVQHLAIDDENNLFITERNGSDGKGTCSVLNEESGTVTFLFKASDNLNVPTVNAQTQNVYIPLDGGYTFYELNPVNQWIAKSRLVLHPSKEQQEAGMDDFEINWKHSLAFSRYDNMIYTRSYGGDLIKVDPETRVGQKIGNFFPNTDSFIVAHPTQPEILYIAYAAKHVIYTYNIETGEHKLFAGAFGQSGWNDGIATDAEFNSPRQMSLDMEGNIYIADSGNHCIRMIDKNGIVTTPIGQPGEAGYADGSPDMALLNDPRGVAVNSEGDVYIADLGNRCIRKLTLQ | failed |
| MAAAGEEYSSDKIEERSLAAIDSMIDPDISGPMRHIVVKAIHAAGDFAIAPLIRYSDGFFKSMLAKLKEGCTIICDSEMVRAGIYSRPVLERNRVVCYLNDVRSKEMADVNGITRSAAGIRIAMQDHRNSVIVIGNAPTALLEAMRMIEENGWYDIPIVGIPVGFINASKAKEGLVSSHIEYISVEGHRGGSPIAASIVNGFGRFLA | not failed |
| MSRSLVFGTAGLALLLAAGGLLYSFGPDERRARAAPTPPDTTDTSGVYSQRAPSRNGIGKVYMGREISKVMGHRGANWLERPARAEKERPDLLVDSLPLGPSDTVADIGAGTGYLSFRVAPRVPQGNILAVDIQPEMLNMMRERIDERGVDNVTPIRGTVTDPQLPADSVDLAYMVDAYHEFSHPYEMMTALMEDLTPGGRVVLVEYPREDPSIPIKTLHKMTEAQAKKEMRAVGLEWVETKDMLPRQHFMVFRKPVE | failed |
| MRFSLFVHMERVSDQQTQKQLYDEMIELCQIADRGGMHAIWTGEHHAMNFTIAPNPFLNIADLANKTKHVRLGTGTVVAPFWHPIKLAGEAAMTDIISNGRLDIGIARGAYSFEYERMVPGMDAWSAGQRLREMIPAIKNLWKGDYEHNGEFWQFPKTTSAPQPLQQPNPPIWVAARDPNSHEFAVQNGCNVQVTPLHLGDEEVEKLMGHFNSACEKFQDIERPEIMLLRHTYVADSEEDAQVAANEMNVFYNYFGAWFKNEREINQGLIAPLSDEEIAAHPFYTPEAMRKNNVIGQAQEVIDRLKAYEAMGYDEYSFWIDTGMSFERKKASLERMINEVMPAFSESKVDRRHATISAVY | failed |
| MISNKRRPKIKIWNKEQMALYLKAIKKDRLYAAFVTDSKSGLRKSELLALRWSDIDFSTGLTKIERGWVRSPKGTLYLSDLKSENSERTLVFSTDLLKVLLEHKSRQDEEKKTAGKNYIDNGLVFCREDGSYINPSTFTRRHYDLTAKAKLPRISVHALRHSISTALLESGKVDLKQIQEMLGHKDISTTGNYYTDVLERMKQKTSELIDNLIQTELEHHHHHH | failed |
| VTLLVKSPNQRHRDLELSGDRGWSVGHLKAHLSRVYPERPRPEDQRLIYSGKLLLDHQCLRDLLPKQEKRHVLHLVCNVK | not failed |
| MMRPLCFFLLIFLLSGNPVMAAELRPFICVNEKDHLPSLDPQADAWYREAVALAKPDTLRPWDRIVDLYSKAVERGHWKAMHNLASLYRTGWPGGVEKDTQKALDLYQKMIDLKVPQGFYDMAAMIGNRAGVKNPATDGLTFLDKAASLGNPPALTELGRLYIYVAGQDELGLKYTNCAAGQGYAPANYELAMYYRLVAHNYPKAAGYYLLAASQGNDDAAFFMSGVFDKTSPDVDRMWYAPDEKLHKLYDGIYDQLAADPDLRFPNLIKDHPLPPHPTQGYDADRPDWKPGQ | failed |
| AKAPQKKHKVLLQQFNTGDERAQKRQPIRGSDEVLFKVYCMDHTYTTIRVPVATSVKEVISAVADKLGSGEGLIIVKMSSGGEKVVLKPNDVSVFTTLTINGRLFACPREQFDSLTPLPEQEGPTVGTVGTFELMSSKDLAYQMTIYDWELFNCVHELELIYHTFGRHNFKKTTANLDLFLRRFNEIQFWVVTEICLCSQLSKRVQLLKKFIKIAAHCKEYKNLNSFFAIVMGLSNVAVSRLALTWEKLPSKFKKFYAEFESLMDPSRNHRAYRLTVAKLEPPLIPFMPLLIKDMTFTHEGNKTFIDNLVNFEKMRMIANTARTVRYYRSQPFNPDAAQANKNHQDVRSYVRQLNVIDNQRTLSQMSHRLEPRRP | failed |
| SLERSVNGKIQKADIFSVPVSFNASEVKHVDTPQEALAASLNKFGEVNLEYMENLSEIDIQELLKQLDTRIFYNPMMKNYEIKDRFIAGNVVAKAEWIENYLKDYPDDDASRKSLEALRKAIPEPISFELLDFNLGERWIPMSVYEEFAGYLFETKAHIHYTESIDEFSVNFESTNANITDRYYVKGEKRGYYGNDLLKHALHNTVPDITKTVQDEEGNDIKVRDAEAIQLADAKINEIRSAFTGWLNEQLPEFKQNLADMYNRKFNCYVRPDYDGSLQSFPFLDLKGLGIPNLYDSQ | failed |
| MMRDSPSIQGTLDAATQHALLAGRHADPFSVLGPHQAGAHTVVRVLAPGARTVMAVLPGGQRTPLLPMQPGLFENTVPGLQPGAPAAYRLCIEWEGGIQHTADPYAFGPVLD | failed |
| MADLRKAARGRECQVRIPGVCNGNPETSVLAHIRLTGLCGTGTKPPDLIATIACSACHDEIDRRTHFVDAGYAKECALEGMARTQVIWLKEGVIKA | not failed |
| MALMTNKTRALLIGGHGKVALLATPMLIDASVQVTSMYRNPDHRSEIEALGATTLERDVTTLSVEDWADLLKDFDVVVWSAGNGGKNGADATYAIDRDAAIASIDGAASLGEKAPRYIMVSYIGSSTHTIDPSASFYPYAESKKAADEHLSSTNLDYLILAPAALTLDEVNGVEVIADTNEAAAGRTTSRVLVAEVITEFVVRDFPQTRVLPFVDGLEHHHHHH | failed |
| MSGPERLLTRAPTHRPERPRLTLVSRRVMRTIGWLLLLIGGLAGGLSSAAGQPSAPPDTIRGDAVAPSPAPASGDLAGQGGALEATPLFYVAEDAATLHNRSGLNAPVTRLAMRTPVRRLSCEADWCRVRTDGGTTGYVAADALSNVWIRVSKRKRRVYVYRGAELAHAFEADMAYNAFADKKRNGGKTRPDHWRTPEGTFYVVHKNPQSEFYKALVLNYPKVEDARRGLDAGLISRAQYEAIRQAQQEHRMPPMGTDLGGWIEIHGDGTGDATAWTQGCVAIRNGAMDVIWEQVRVGTPVLIE | failed |
| MKGENMMVKLIALYEQPEDKQAFDEHYFNTHAPLTRKIPGLRDMKVTRIVGSPMGESKFYLMCEMYYDDHESLQQAMRTDEGKASGKDAMKFAGKLLTLMIGEEMDE | not failed |
| MPSDSQNNKRIAQNTLLLYFRMLFLMLVSLYTSRVNLNALGIEDFGIYNVVGGLVAMFSIISGSLVSSISRFITFELGTENKEKLKKVFSTAVSIQFFLVIIVVILAETIGLWFLNNKMVIPEERILAANIIYQFSIISFALSLMSIPYTGTIVAHEKMSAFAYISIFDVIGKLAVALTISIAPIDKLIWFAGFIVFNSTIIQSIYIFYCKRHFEECTYHFIFDKSLLKNMFGFAGWNFIGSIAAILRDQGGNIVINMFCGPAVNAARGVAMQVNNAVSGFVSNFQTALNPQITKSYASGNYDYMMQLIFQGARLSYYILLILALPIISNTHFILQLWLGQVPKHTVLFVQLVLFFTMSESLANPLINAMLATGKIKKFQIIVGGLNLVNLPLSYICLRLGCIPESVVIIAIIISMICEMARVIMLRNMIHFPARSFLKKVYFNVIFVTITASILPLYLHFILEENIYTFTLISVVSFSCTLLSILYIGCSSEERVMVFSKVKVIVNKVSKRYK | failed |
| AFAVLTTAGSRPVLSFLWVEPAARRQGLARELLMALAQQFPGIGTSVTVPETFTPLFAAAGYTPLSLQQYEMTMDLADAKSA | failed |
| MARNKGWVGATCCFLLFTVVFLSQKIEVSEVAVNDGLRGSPGMLLFLLPGMVACFLSARGRLLYPLFGALAAMPVCLLLLHLWNTPMRSFWQELAYVMSAVFWCVLGAMGVLCLRSLYRRYLR | not failed |
| MFDWLTNSTAIIIILPVVVFVLTLFLARFKFRKPQRRIMLAADLSTIFLIIAVHFFMIVIFNRSFLLYILLFLFILGIVIVVLAAKKEGEIQFRKILRGYWRLCFFIFALLYVVLYLYGIIYSLILLF | failed |
| MGKIMEWAARSDHLGGIPRNTVIMAVSAFAKAVANLCNKSSVHNADTLMNLVQSRPPGVPLITVSNHMSTLDDPVMWGAFKGLLSLDPELARWVLAAEDICFRNPIFSYIFRTGKCIPITRGGGIYQENMNEALQRLKDGSWLHTFPEGKVFQDDVPIRRLKWGTASLIARSPVTPIVLPIIHRGFEEMMPENYNNGRRPLVPLPNKHLKVVVGEPIEFDVPMMVETAVLDSRHVTPPLQEVKWPVLTSAGQVLDETAQRHLYIALSEKIQSSLETLRLLAKRL | failed |
| MMEMITIKPGKITVQANPNMPKEVAELFRKQHYEIVGRHSGVKLCHWLKKSLTEGRFCYKQKFYGIHSHRCLQMTPVLAWCTHNCIFCWRPMENFLGTELPQPWDDPAFIVEESIKAQRKLLIGYKGNPKVDKKKFEEAWNPTHAAISLSGEPMLYPYMGDLVEEFHKRGFTTFIVTNGTIPERLEEMIKEDKLPTQLYVSITAPDIETYNSVNIPMIPDGWERILRFLELMRDLPTRTVVRLTLVKGENMHSPEKYAKLILKARPMFVEAKAYMFVGYSRNRLTINNMPSHQDIREFAEALVKHLPGYHIEDEYEPSRVVLIMRDDVDPQGTGVEGRFIKH | not failed |
| MGKKELKRGLVVDREAQMIGVYLFEDGKTYRGIPRGKVLKKTKIYAGDYVWGEVVDPNTFAIEEVEERKNLLIRPKVANVDRVIIVETLKMPEFNNYLLDNMLVVYEYFKVEPVIVFNKIDLLNEEEKKELERWISIYRDAGYDVLKVSAKTGEGIDELVDYLEGFICILAGPSGVGKSSILSRLTGEELRTQEVSEKTERGRHTTTGVRLIPFGKGSFVGDTPGFSKVEATMFVKPREVRNYFREFLRYQCKYPDCTHTNEPGCAVKEAVKNGEISCERYKSYLKIIKVYLEEIKELCRED | not failed |
| MATRQPLDATACSLMVGLCAIWGLQQVALKATASDIAPVLQIALRSGGAALLVGLLMCWRGERLGLGDGHWRPGLLVGGLFALEFLLVGEGLRYTTASHMAIFLYTAPIFAALGLHWLMPAERLKPAQWLGIGVAFGGIVVAFSGPAAAGHGGGSHVLLGDFLGVLGGVAWGATTVVVRCSRLASSPTTRTLQYQLLGAFVWLGLAALLTDQTSIHFTPLVVASLGFQVLVVSFASFLIWFTLLRRYPASRLGVLSFMTPLFGIGFGVWLLHEPLEPNFIFGALLVLAGIVMVSGYEWLRQRFKRNRESPVAPRSS | failed |
| MNDHTAAIAAHFDQLAPNLDRWRRRNRTYYRDLEKLHRFWIPTGSRVLQVGSGLGDLLATVEPSFGIGIDVSPQAVAIAQQRHPQLQFHCLAAEELTPEAIGNPEPFDAIILTGVLSYLTDIQVVLEQLQAFCHPRTRLILGFHNFLWQPLLTAAEKVGQRSPQPPESWLGMQDVLNLLTLTGYEPIKQGLEHHHHHH | not failed |
